# Reference: US20240199746A1 (published 2024)
# T1: Ax1 protein, extracellular domain (human, UniProt P30530 26-451)
# T1 construct: extracellular domain; also called Axl; Ark
# T1 sequence (looked up): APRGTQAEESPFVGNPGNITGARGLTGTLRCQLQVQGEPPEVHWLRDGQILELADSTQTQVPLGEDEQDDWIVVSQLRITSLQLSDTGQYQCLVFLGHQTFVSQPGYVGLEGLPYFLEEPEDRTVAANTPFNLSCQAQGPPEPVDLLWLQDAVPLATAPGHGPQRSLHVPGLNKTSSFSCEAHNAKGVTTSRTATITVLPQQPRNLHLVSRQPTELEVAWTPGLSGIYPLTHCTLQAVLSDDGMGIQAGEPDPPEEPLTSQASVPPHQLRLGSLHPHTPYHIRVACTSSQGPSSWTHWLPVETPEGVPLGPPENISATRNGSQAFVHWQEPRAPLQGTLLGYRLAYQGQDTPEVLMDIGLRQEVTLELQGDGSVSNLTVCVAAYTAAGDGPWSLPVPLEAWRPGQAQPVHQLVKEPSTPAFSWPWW
# Columns and labels:
# [1] = molecular target: T1, Ax1 protein, extracellular domain; experiment: ELISA, mutant diluted 1:9
# Text: (§1) The DNA encoding the wild-type antibody was evolved to generate a mutant antibody library using Comprehensive Positional Evolution (CPE), which each position in the template antibody is randomized one at a time. Each mutant antibody in the library has only one single point mutation. The mutant antibodies in the library were generated by simultaneously screening for selective binding affinity to Ax1 at pH 6.0 over pH 7.4 by ELISA. Two mutant antibody dilutions were used: 1:3 and 1:9 dilutions.
# [2] = molecular target: T1, Ax1 protein, extracellular domain; experiment: ELISA, mutant diluted 1:3
# Text: as §1
Binder,"Affinity ELISA CPE mutant ratio (1:9, pH 6.0/7.4) [1]","Affinity ELISA CPE mutant ratio (1:3, pH 6.0/7.4) [2]"
"HC-E102L (antibody, V domains shown, CPE single point mutant) VH: EVQLVQSGAEVKKPGATVKISCKVSGYSFTGHTMNWIRQPPGKGLEWIGLIKPSNGGTSYNQKFKGRVTISADKSISTAYLQWSSLKASDTAMYYCAHGHYLSYFAMDYWGQGTLVTVSS VL: DIQMTQSPSSLSASVGDRVTITCKASQDVSSAVAWYQQKPGQAPRLLIYWASTRHTGVPSRFSGSGSGTEFTLTISSLQPDDFATYYCQEHFSTPLTFGQGTKVEIK",2.7,3.27
"HC-F105N (antibody, V domains shown, CPE single point mutant) VH: EVQLVQSGAEVKKPGATVKISCKVSGYSFTGHTMNWIRQPPGKGLEWIGLIKPSNGGTSYNQKFKGRVTISADKSISTAYLQWSSLKASDTAMYYCAHGHYESYNAMDYWGQGTLVTVSS VL: DIQMTQSPSSLSASVGDRVTITCKASQDVSSAVAWYQQKPGQAPRLLIYWASTRHTGVPSRFSGSGSGTEFTLTISSLQPDDFATYYCQEHFSTPLTFGQGTKVEIK",2.64,2.36
"HC-A106L (antibody, V domains shown, CPE single point mutant) VH: EVQLVQSGAEVKKPGATVKISCKVSGYSFTGHTMNWIRQPPGKGLEWIGLIKPSNGGTSYNQKFKGRVTISADKSISTAYLQWSSLKASDTAMYYCAHGHYESYFLMDYWGQGTLVTVSS VL: DIQMTQSPSSLSASVGDRVTITCKASQDVSSAVAWYQQKPGQAPRLLIYWASTRHTGVPSRFSGSGSGTEFTLTISSLQPDDFATYYCQEHFSTPLTFGQGTKVEIK",1.61,21.5
"HC-B102F (antibody, V domains shown, CPE single point mutant; printed B102, read as E102 (other rows print HC-E102x)) VH: EVQLVQSGAEVKKPGATVKISCKVSGYSFTGHTMNWIRQPPGKGLEWIGLIKPSNGGTSYNQKFKGRVTISADKSISTAYLQWSSLKASDTAMYYCAHGHYFSYFAMDYWGQGTLVTVSS VL: DIQMTQSPSSLSASVGDRVTITCKASQDVSSAVAWYQQKPGQAPRLLIYWASTRHTGVPSRFSGSGSGTEFTLTISSLQPDDFATYYCQEHFSTPLTFGQGTKVEIK",1.36,1.88
"HC-E102Y (antibody, V domains shown, CPE single point mutant) VH: EVQLVQSGAEVKKPGATVKISCKVSGYSFTGHTMNWIRQPPGKGLEWIGLIKPSNGGTSYNQKFKGRVTISADKSISTAYLQWSSLKASDTAMYYCAHGHYYSYFAMDYWGQGTLVTVSS VL: DIQMTQSPSSLSASVGDRVTITCKASQDVSSAVAWYQQKPGQAPRLLIYWASTRHTGVPSRFSGSGSGTEFTLTISSLQPDDFATYYCQEHFSTPLTFGQGTKVEIK",1.99,2.61
"HC-B102A (antibody, V domains shown, CPE single point mutant; printed B102, read as E102 (other rows print HC-E102x)) VH: EVQLVQSGAEVKKPGATVKISCKVSGYSFTGHTMNWIRQPPGKGLEWIGLIKPSNGGTSYNQKFKGRVTISADKSISTAYLQWSSLKASDTAMYYCAHGHYASYFAMDYWGQGTLVTVSS VL: DIQMTQSPSSLSASVGDRVTITCKASQDVSSAVAWYQQKPGQAPRLLIYWASTRHTGVPSRFSGSGSGTEFTLTISSLQPDDFATYYCQEHFSTPLTFGQGTKVEIK",1.69,1.53
"HC-F105V (antibody, V domains shown, CPE single point mutant) VH: EVQLVQSGAEVKKPGATVKISCKVSGYSFTGHTMNWIRQPPGKGLEWIGLIKPSNGGTSYNQKFKGRVTISADKSISTAYLQWSSLKASDTAMYYCAHGHYESYVAMDYWGQGTLVTVSS VL: DIQMTQSPSSLSASVGDRVTITCKASQDVSSAVAWYQQKPGQAPRLLIYWASTRHTGVPSRFSGSGSGTEFTLTISSLQPDDFATYYCQEHFSTPLTFGQGTKVEIK",2.8,2.43
"HC-A106D (antibody, V domains shown, CPE single point mutant) VH: EVQLVQSGAEVKKPGATVKISCKVSGYSFTGHTMNWIRQPPGKGLEWIGLIKPSNGGTSYNQKFKGRVTISADKSISTAYLQWSSLKASDTAMYYCAHGHYESYFDMDYWGQGTLVTVSS VL: DIQMTQSPSSLSASVGDRVTITCKASQDVSSAVAWYQQKPGQAPRLLIYWASTRHTGVPSRFSGSGSGTEFTLTISSLQPDDFATYYCQEHFSTPLTFGQGTKVEIK",2.51,3.39
"HC-F105T (antibody, V domains shown, CPE single point mutant) VH: EVQLVQSGAEVKKPGATVKISCKVSGYSFTGHTMNWIRQPPGKGLEWIGLIKPSNGGTSYNQKFKGRVTISADKSISTAYLQWSSLKASDTAMYYCAHGHYESYTAMDYWGQGTLVTVSS VL: DIQMTQSPSSLSASVGDRVTITCKASQDVSSAVAWYQQKPGQAPRLLIYWASTRHTGVPSRFSGSGSGTEFTLTISSLQPDDFATYYCQEHFSTPLTFGQGTKVEIK",4.02,3.46
"HC-B102H (antibody, V domains shown, CPE single point mutant; printed B102, read as E102 (other rows print HC-E102x)) VH: EVQLVQSGAEVKKPGATVKISCKVSGYSFTGHTMNWIRQPPGKGLEWIGLIKPSNGGTSYNQKFKGRVTISADKSISTAYLQWSSLKASDTAMYYCAHGHYHSYFAMDYWGQGTLVTVSS VL: DIQMTQSPSSLSASVGDRVTITCKASQDVSSAVAWYQQKPGQAPRLLIYWASTRHTGVPSRFSGSGSGTEFTLTISSLQPDDFATYYCQEHFSTPLTFGQGTKVEIK",2.31,2.08
"HC-B102D (antibody, V domains shown, CPE single point mutant; printed B102, read as E102 (other rows print HC-E102x)) VH: EVQLVQSGAEVKKPGATVKISCKVSGYSFTGHTMNWIRQPPGKGLEWIGLIKPSNGGTSYNQKFKGRVTISADKSISTAYLQWSSLKASDTAMYYCAHGHYDSYFAMDYWGQGTLVTVSS VL: DIQMTQSPSSLSASVGDRVTITCKASQDVSSAVAWYQQKPGQAPRLLIYWASTRHTGVPSRFSGSGSGTEFTLTISSLQPDDFATYYCQEHFSTPLTFGQGTKVEIK",2.85,2.67
"HC-E102V (antibody, V domains shown, CPE single point mutant) VH: EVQLVQSGAEVKKPGATVKISCKVSGYSFTGHTMNWIRQPPGKGLEWIGLIKPSNGGTSYNQKFKGRVTISADKSISTAYLQWSSLKASDTAMYYCAHGHYVSYFAMDYWGQGTLVTVSS VL: DIQMTQSPSSLSASVGDRVTITCKASQDVSSAVAWYQQKPGQAPRLLIYWASTRHTGVPSRFSGSGSGTEFTLTISSLQPDDFATYYCQEHFSTPLTFGQGTKVEIK",2.51,1.93
"HC-F105S (antibody, V domains shown, CPE single point mutant) VH: EVQLVQSGAEVKKPGATVKISCKVSGYSFTGHTMNWIRQPPGKGLEWIGLIKPSNGGTSYNQKFKGRVTISADKSISTAYLQWSSLKASDTAMYYCAHGHYESYSAMDYWGQGTLVTVSS VL: DIQMTQSPSSLSASVGDRVTITCKASQDVSSAVAWYQQKPGQAPRLLIYWASTRHTGVPSRFSGSGSGTEFTLTISSLQPDDFATYYCQEHFSTPLTFGQGTKVEIK",4.54,3.9
"HC-B102I (antibody, V domains shown, CPE single point mutant; printed B102, read as E102 (other rows print HC-E102x)) VH: EVQLVQSGAEVKKPGATVKISCKVSGYSFTGHTMNWIRQPPGKGLEWIGLIKPSNGGTSYNQKFKGRVTISADKSISTAYLQWSSLKASDTAMYYCAHGHYISYFAMDYWGQGTLVTVSS VL: DIQMTQSPSSLSASVGDRVTITCKASQDVSSAVAWYQQKPGQAPRLLIYWASTRHTGVPSRFSGSGSGTEFTLTISSLQPDDFATYYCQEHFSTPLTFGQGTKVEIK",1.7,2.02
"HC-B102G (antibody, V domains shown, CPE single point mutant; printed B102, read as E102 (other rows print HC-E102x)) VH: EVQLVQSGAEVKKPGATVKISCKVSGYSFTGHTMNWIRQPPGKGLEWIGLIKPSNGGTSYNQKFKGRVTISADKSISTAYLQWSSLKASDTAMYYCAHGHYGSYFAMDYWGQGTLVTVSS VL: DIQMTQSPSSLSASVGDRVTITCKASQDVSSAVAWYQQKPGQAPRLLIYWASTRHTGVPSRFSGSGSGTEFTLTISSLQPDDFATYYCQEHFSTPLTFGQGTKVEIK",2.68,1.8
"HC-E102M (antibody, V domains shown, CPE single point mutant) VH: EVQLVQSGAEVKKPGATVKISCKVSGYSFTGHTMNWIRQPPGKGLEWIGLIKPSNGGTSYNQKFKGRVTISADKSISTAYLQWSSLKASDTAMYYCAHGHYMSYFAMDYWGQGTLVTVSS VL: DIQMTQSPSSLSASVGDRVTITCKASQDVSSAVAWYQQKPGQAPRLLIYWASTRHTGVPSRFSGSGSGTEFTLTISSLQPDDFATYYCQEHFSTPLTFGQGTKVEIK",2.36,2.08
"HC-A106G (antibody, V domains shown, CPE single point mutant) VH: EVQLVQSGAEVKKPGATVKISCKVSGYSFTGHTMNWIRQPPGKGLEWIGLIKPSNGGTSYNQKFKGRVTISADKSISTAYLQWSSLKASDTAMYYCAHGHYESYFGMDYWGQGTLVTVSS VL: DIQMTQSPSSLSASVGDRVTITCKASQDVSSAVAWYQQKPGQAPRLLIYWASTRHTGVPSRFSGSGSGTEFTLTISSLQPDDFATYYCQEHFSTPLTFGQGTKVEIK",2.2,1.52
